From the nanobody polyreactivity screen of Harvey et al. (2022)

Test: yeast display, Sf9 membrane polyspecificity reagent, FACS + sequencing; frameworks hold sequencing errors
Outline: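 Synthetic nanobody libraries on Saccharomyces cerevisiae BJ5465 were galactose-induced for 36–48 hours, stained 1 hour at 4 °C with 10% biotinylated, detergent-solubilized Sf9 membrane reagent and enriched on streptavidin microbeads. FACS then separated cells into low and high (top ~1%) gates by anti-HA (expression) and streptavidin (reagent binding) fluorescence. Genes were colony-PCR amplified, MiSeq 2 × 250 sequenced and CDR-length filtered. A clone's polyreactivity label is that of its gate of origin.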

Sequence: QVQLVESGGGLVQAGGSLRLSCAASGSTFKYNAMGWYRQAPGKEREFVAAISYSGGSTYYADSVKGRFTISRDYAKNTVYLQMNSLKPEDTAVYYCAAYPWERYTWRYVYRGHDYWGQGTQVTVSS
- polyreactivity (PSR sort gate): low polyreactivity

Sequence: QVQLVESGGGLVQAGGSLRLSCAASGSTFKYNAMGWYRQAPGKERELVASISRSGGSTYYADSVKGRFTISRDNAKNTVYLQMNSLKPEDTAVYYCAVRVSSHPVYHYNYWGQGTQVTVSS
- polyreactivity (PSR sort gate): high polyreactivity

Sequence: QVQLVESGGGLVQAGGSLRLSCAASGSTFKYNTMGWYRQAPGKERELVARISWSGTRTYYADSVKGRFTISRDNAKNTVYLQMNSLKPEDTAVYYCAKVSYFWSPYGYDSWGQGTQVTVSS
- polyreactivity (PSR sort gate): high polyreactivity

Sequence: QVQLVESGGGLVQAGGSLRLSCAASGSTFKYYALGWYRQAPGKERELVAVITSGGSTYYADSVKGRFTISRDNAKNTVYFQMNSLKPEDTAVYYCAAGVRAYNWGEYDYWGQGTQVTVSS
- polyreactivity (PSR sort gate): low polyreactivity

Sequence: QVQLVESGGGLVQAGGSLRLSCAASGSTFKYYAMGWYRQAPGKERELVAAISGTGGNTYYADSVKGRFTISRDNAKNTVYLQMNSLKPEDTAVYYCAAGFRRGWAYTTYDYWGQGTQVTVSS
- polyreactivity (PSR sort gate): low polyreactivity

Sequence: QVQLVESGGGLVQAGGSLRLSCAASGSTFKYYTMGWYRQAPGKERELVAAISYSGGSTYYADSVKGRFTISRDNAKNTVYLQMNSLKPEDTAVYYCAALRYADYDYWGQGTQVTVSS
- polyreactivity (PSR sort gate): high polyreactivity

Sequence: QVQLVESGGGLVQAGGSLRLSCAASGSTFLGYAMGWSRQAPGKERELVAAISWSGGSTYYADSVKGRFTISRDNAKNTVYLQMNRLKPEDTAVYYCNAVGYLDFEWGQGTQVTVSS
- polyreactivity (PSR sort gate): low polyreactivity

Sequence: QVQLVESGGGLVQAGGSLRLSCAASGSTFLGYAMGWYRQAPGKERELVAAITYRGTRTYYADSVKGRFTISRDYAKNTVYLQMNSLKPEDTTVYYCAADRYIGTVEYDYWGQGTQVTVSS
- polyreactivity (PSR sort gate): high polyreactivity

Sequence: QVQLVESGGGLVQAGGSLRLSCAASGSTFLNNAMGWSRQAPGEERELVAAISRRGGNTYYADSEKGRFTISRDNAKNTVSLHMNSLKPEDTAVYYCAADLVWTRYFGYAQDYYIEFDYWGQGTQVTVSS
- polyreactivity (PSR sort gate): high polyreactivity

Sequence: QVQLVESGGGLVQAGGSLRLSCAASGSTFLNNAMGWYRQAPGKERELVATITSGGITNYADSVKGRFTISRDNAKNTVYLQMNSLKPEDTAVYYCNADTWGFTYYYWGQGTQVTVSS
- polyreactivity (PSR sort gate): low polyreactivity

Sequence: QVQLVESGGGLVQAGGSLRLSCAASGSTFLNYAMGWSRQAPGKERELVAAISGSTTRTYYADSVKGRFTISRDNAKNPVYLQMNSLKPEDTAVYYCAARVRYPPYRSSDGQRAGYWGQGTQVTVSS
- polyreactivity (PSR sort gate): high polyreactivity

Sequence: QVQLVESGGGLVQAGGSLRLSCAASGSTFLRFAMGWYRQAPGKERELVARISGGGTTYYADSVKGRFTISRDNAKNTVYLQMNSLKPEDTAVYYCNAFYFYVNQGRYEYGYWGQGTQVTVSS
- polyreactivity (PSR sort gate): high polyreactivity

Sequence: QVQLVESGGGLVQAGGSLRLSCAASGSTFLRNAMGWYRQAPGKERELVATISRTGGTTYYADSVKGRFSISRDNAKTTVYLQMNSLKPEDTAVYYCAAYSKYGQHYDYWGQGTQVTVSS
- polyreactivity (PSR sort gate): high polyreactivity

Sequence: QVQLVESGGGLVQAGGSLRLSCAASGSTFLRNAMGWYRQAPGKERELVATISTGSGRTYYADSVKGRFTISRDNAKNTVYLQMNSLKPEDTAVYYCATRVPLGPYYYGMYYWGQGTQVTVSS
- polyreactivity (PSR sort gate): high polyreactivity

Sequence: QVQLVESGGGLVQAGGSLRLSCAASGSTFLRYAMGWYRQAPGKERELVAAISYRDGSTYYADSVKGRFTISRDNAKNTVYLQMNSLKPEDTAVYYCARGSWYRSAYYYWGQGTQVTVSS
- polyreactivity (PSR sort gate): high polyreactivity

Sequence: QVQLVESGGGLVQAGGSLRLSCAASGSTFLRYAMGWYRQAPGKERELVADITTSGGITYYADSVKGRFTISRDNAKNTVYLQMNSLKPEDTAVYYCAARYLPYRRIKYDYWGQGTQVTVSS
- polyreactivity (PSR sort gate): low polyreactivity

Sequence: QVQLVESGGGLVQAGGSLRLSCAASGSTFLSNAMGWYRQAPGKERELVAAISVSGARTYYADSVKGRFTISRDNAKNTVYLQMNSLKPEDTAVYYCNAGTSVRYTESSDYWGQATQVTVSS
- polyreactivity (PSR sort gate): high polyreactivity

Sequence: QVQLVESGGGLVQAGGSLRLSCAASGSTFLSNAMGWYRQAPGKERELVAAITTSGTSTFYADSVKGRFTISRDNAKNTVYLQMNSLKPEDTAVYCAKDYLPYLHFVAPSTGDYDYWGQGTQVTVSS
- polyreactivity (PSR sort gate): low polyreactivity

Sequence: QVQLVESGGGLVQAGGSLRLSCAASGSTFLTNTMGWYRQAPGKERELVAAISKSGGSTYYADSVKGRFTISRDNAKNTVYLQMNSLKPEDTAVYYCAAVRYVHFGYDYWGQGTQVTVSS
- polyreactivity (PSR sort gate): high polyreactivity

Sequence: QVQLVESGGGLVQAGGSLRLSCAASGSTFLTNVMGWYRQAPGKEREFVAAITANGGRTYYADSVKGRFTISRDYAKMTVYLQMNSLKPEDTAVYYAVETAWSYNSNYWFDYWGEGTQVTVSS
- polyreactivity (PSR sort gate): high polyreactivity

Sequence: QVQLVESGGGLVQAGGSLRLSCAASGSTFLVYAMGWYRPAPGKERELVAAITQIDGSTYNADSVKGRFTISRDNSKNTVYLQRHSLKPEDTAVYYCAARYFWTYEYDYWGQGTQVTVSS
- polyreactivity (PSR sort gate): low polyreactivity

Sequence: QVQLVESGGGLVQAGGSLRLSCAASGSTFLVYAMGWYRQAPGKERELVAAINFSGSSTYYADSVKGRFTISRDNAENTVYLQMNSLKPEDTAVYYCAADSLELWYGYFWVKVPYDYWGQGTQVTVSS
- polyreactivity (PSR sort gate): low polyreactivity

Sequence: QVQLVESGGGLVQAGGSLRLSCAASGSTFLWYAMGWYRQAPGKERELVAVIDWSGGSTSYADSVKGRFTISRDNAKNTVYLQMNSLKPEDTAVYYCAADYGHYYGLYYWGQGTQVTVSS
- polyreactivity (PSR sort gate): low polyreactivity

Sequence: QVQLVESGGGLVQAGGSLRLSCAASGSTFLYNAIGWYRQAPGKERELVAAISSGGRTKYADSVKGRFTISRDTAKNTVYLQMNSLKPEDTAVYYCAAESYTGKYCWVWKWYDYWGQGTQVTVSS
- polyreactivity (PSR sort gate): low polyreactivity

Sequence: QVQLVESGGGLVQAGGSLRLSCAASGSTFLYYAMGWSRQAPGKERELVAVISWSGVSTYYADSVKGRFTISRDNAKNSVYLQMNSLKPEDTAVYYCYTGYHYIRSYGYWGQGTQVTVSS
- polyreactivity (PSR sort gate): low polyreactivity

Sequence: QVQLVESGGGLVQAGGSLRLSCAASGSTFLYYAMGWYRQAPGKERELVAVIRLDAGRTYYADSVKGRFTISRDNAKNTVYFQMNSLKPEDTAVYYCAAKGSFRTYGGGNYWGQGTQVTVSS
- polyreactivity (PSR sort gate): high polyreactivity

Sequence: QVQLVESGGGLVQAGGSLRLSCAASGSTFLYYAMGWYRQAPGKESELVAAIDSGGSTYYADSVKGRFTISRDNAKNTVYLQMNSLKPEDTAVYYCNADPPPEYYPDKDNYWGQGTQVTVSS
- polyreactivity (PSR sort gate): low polyreactivity

Sequence: QVQLVESGGGLVQAGGSLRLSCAASGSTFLYYAMGWYRQAPGKESELVARITTRVGRTYYADSVKGRFTISRDNAKNTVYLQMNSLKPEDTAVYYCNAPYLKSRFRAYYHWGQGTQVTVAS
- polyreactivity (PSR sort gate): high polyreactivity

Sequence: QVQLVESGGGLVQAGGSLRLSCAASGSTFLYYAMGWYRQATGKERELVAAIDSGGSTYYADSVKGRFTISRDNAKNTVYLQMNSLKPEDTAVYYCNADFADHWPPNGPGAHDYWGQGTQVTVSS
- polyreactivity (PSR sort gate): low polyreactivity

Sequence: QVQLVESGGGLVQAGGSLRLSCAASGSTFNAYAMGWYRQAPGKERELVAAITDGDSTNYADSVKGRSTISRDNAKNTVYLQMNSLKPEDTAVYYCAKDSSVGDGDDGWVWFDLYYWGQGTQVTVSS
- polyreactivity (PSR sort gate): low polyreactivity

Sequence: QVQLVESGGGLVQAGGSLRLSCAASGSTFNAYDMGWYRQAPGKERELVAAISTSGDSTYFADSVKGRFTISRDNAKNTVYLQMNSLKPEDTAVYYCARDIYHYGYDYWGQGTQVTVSS
- polyreactivity (PSR sort gate): low polyreactivity

Sequence: QVQLVESGGGLVQAGGSLRLSCAASGSTFNCYHMGWYRQAPGKEMELVAAITGSGGYTYYADSVKGRFTISRDNAKNTVYLQMKSLNPEETAVYYCAAKKVAGRRFYYWGQGTQVTVSS
- polyreactivity (PSR sort gate): low polyreactivity

Sequence: QVQLVESGGGLVQAGGSLRLSCAASGSTFNDNAMGWYRQAPGKERELVAGISYSGGSTYYADSVKGRFTISRDHAKNTVYLQMNSLKPEDTAVYYCNADVTGLSQFGYWGQGTQVTVSS
- polyreactivity (PSR sort gate): low polyreactivity

Sequence: QVQLVESGGGLVQAGGSLRLSCAASGSTFNDYDMGWYRQAPGNERELVAAISSGGSTYYADSVKGRFTISRDNAKNTVYLQMNSLKPEDTAVYYCAAVLGVWGGVGSEGDFWGQGTQVTVSS
- polyreactivity (PSR sort gate): low polyreactivity

Sequence: QVQLVESGGGLVQAGGSLRLSCAASGSTFNDYTMGWYRQAPGKERELVAAITDSGGSTYYADSVKGRFTISRDNAKNTVYLQMNSLKPEDTAVYYCAAAVPELYEVRYHDDYWGQGTQVTVSS
- polyreactivity (PSR sort gate): low polyreactivity

Sequence: QVQLVESGGGLVQAGGSLRLSCAASGSTFNFYAMGWYRQAPGKDREFVAAITSSGDSTYYADSVKGRFTISRDNAKNTAYLQMNSLKPEDTAVYYCAARLRWRYSYDYWGQGTQVTVSS
- polyreactivity (PSR sort gate): high polyreactivity

Sequence: QVQLVESGGGLVQAGGSLRLSCAASGSTFNGYAMGWYRQAPGKERELVAAISKRGGGTYYADSVKGRFTISRDNAKNTVYLQMNSLKPEDTAVYYCAAVSGPFVQTSGNGEYDYWGQGTQVTVSS
- polyreactivity (PSR sort gate): low polyreactivity

Sequence: QVQLVESGGGLVQAGGSLRLSCAASGSTFNGYAMGWYRQAPGKERELVAAISSRSGRTYYADSVKGRFTISRDNAKNTVYLQMNSLKPEDTAVYYCAAYNGSRRQEFDYWGQGTQVTVSS
- polyreactivity (PSR sort gate): high polyreactivity

Sequence: QVQLVESGGGLVQAGGSLRLSCAASGSTFNINAMGWYRPAPRKERELVARIRASGASTYYADSVKGRFTISRDNAKITVYLQMNSLKPDDTAVYYCAAYTYSFRANHDYWGQGTQVTVSS
- polyreactivity (PSR sort gate): high polyreactivity

Sequence: QVQLVESGGGLVQAGGSLRLSCAASGSTFNIYAMGWYRQAPGKEREFVASIRWSGGSTYYADSVKGRFTISRDNAKNTVYLQMNSLKPEDTAVYYCAGRTFWGAYDYWGQGTQVTVSS
- polyreactivity (PSR sort gate): high polyreactivity

Sequence: QVQLVESGGGLVQAGGSLRLSCAASGSTFNNAMGWYRQPPGKERELVAAITRSGVRTYYADSVKGRFTISRDNAKNTVYLQMNSLKPEDTAVYYCAAGFQSRRYYAGYEYWGQGTQVTVSS
- polyreactivity (PSR sort gate): high polyreactivity

Sequence: QVQLVESGGGLVQAGGSLRLSCAASGSTFNQNAMGWYRQAPGKERELVAAITVDGSSTYYADSVKGRFTISRDNAKNTVYLQMNSLKPEDTAVYYCAAGYSARSSGYTGGYDYWGQGTQVTVSS
- polyreactivity (PSR sort gate): high polyreactivity

Sequence: QVQLVESGGGLVQAGGSLRLSCAASGSTFNRNTMGWYRQAPGKERELVASINRGGSTYYADSVKGRFTISRDNAKNTVYLQMNSLKPEDTAVYYCAKRVRKSYTGTQAPKKFGYWGQGSQVTVSS
- polyreactivity (PSR sort gate): low polyreactivity
